From PMC3441139

Biological target: N-terminal EGFP fusion to zebrafish P2X4 crystallized construct (EGFP-ΔP2X4-A) (Danio rerio) (UniProt F8W463)
Assay: SEC

With “N-terminal EGFP fusion to zebrafish P2X4 crystallized construct (EGFP-ΔP2X4-A) (from UniProt F8W463 1-389) (receptor)” the stoichiometry N was 3.
